According to PMC6265350:

Assays:
[1] = target: T1, MtrA Y102C (unphosphorylated) Y102C (UniProt P9WGM7); assay: EMSA; details: 50 mM Tris-HCl pH 7.5, 50 mM NaCl, 10 mM MgCl2, 10 mM CaCl2, […]
T1 sequence: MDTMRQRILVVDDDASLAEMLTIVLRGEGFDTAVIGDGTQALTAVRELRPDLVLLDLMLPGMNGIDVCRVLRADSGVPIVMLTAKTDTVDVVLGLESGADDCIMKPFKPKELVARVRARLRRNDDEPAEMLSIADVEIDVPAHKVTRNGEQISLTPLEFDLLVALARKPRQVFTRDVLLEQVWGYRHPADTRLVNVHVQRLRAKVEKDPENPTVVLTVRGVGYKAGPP

MtrA Y102C~P Y102C = target: T2, MtrA Y102C~P Y102C (UniProt P9WGM7); assay: EMSA; details: 50 mM Tris-HCl pH 7.5, 50 mM NaCl, 10 mM MgCl2, 10 mM CaCl2, […]
T2 sequence: T1 sequence

“CTGTGCAGAGTAGGTGATCGGCGGCCCGACCGCGAGGAGCCGCGCTGTGACTGGCGGGACGAAAGTTACAGATGAAGATATTTGCGTCCGGTGTCGGTGAGCACGCTGCGCAGGATGGTTTCGATGGTGTCGAACTCGGGCTGTCCGCTAATCAGCGGGGGAGCCACCTGGACGACGGGGTCCCCGCGGTCGTCGGTG (double strand) [PdacB1]” was tested, and the binding [1] was “binds” and the binding (MtrA Y102C~P Y102C) was “binds”.
